According to PMC7407445, “Role of RadA and DNA Polymerases in Recombination-Associated DNA Synthesis in Hyperthermophilic Archaea”:

Target: RadA recombinase (Pyrococcus abyssi, UniProt Q9V233 1-353)
Experiment: EMSA; no ATP; 25 nM ssDNA, RadA 0-6.4 uM; 20 mM Tris-HCl pH 8.0, 50 ug/mL BSA, 2 mM DTT, 0.5% Triton, 65 C, 10 min; 0.75% native agarose gel
Conditions: protein: recombinant; tags: none (untagged); label: 5' HiLyte Fluor 647; single strand

Chain of RadA recombinase (Q9V233 whole entry): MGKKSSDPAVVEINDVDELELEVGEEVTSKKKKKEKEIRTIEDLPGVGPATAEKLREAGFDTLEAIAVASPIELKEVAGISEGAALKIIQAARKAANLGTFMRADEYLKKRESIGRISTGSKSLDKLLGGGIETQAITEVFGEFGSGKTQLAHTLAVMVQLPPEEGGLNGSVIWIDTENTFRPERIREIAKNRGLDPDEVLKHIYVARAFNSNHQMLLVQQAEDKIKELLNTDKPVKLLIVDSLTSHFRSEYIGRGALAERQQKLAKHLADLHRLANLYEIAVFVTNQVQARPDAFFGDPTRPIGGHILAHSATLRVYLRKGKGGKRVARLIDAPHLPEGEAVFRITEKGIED

B1: L93-5'HL 647 (93-mer ssDNA) (ssDNA)
DNA: AAAGGCGGTAATACGGTTATCCACAGAATCAGGGGATAACGCAGGAAAGAACATGTGAGCAAAAGGCCAGCAAAAGGCCAGGAACCGTAAAAA
  binding result: binds
